Assay results as given in patent US10508147B2, “Anti-nodal antibodies and methods of using same” (ANN AND ROBERT H. LURIE CHILDREN'S HOSPITAL OF CHICAGO, priority 2014, dated 2019).
Entries after “also recorded” stand apart in the source; their conditions may differ.

Key:
[1] = target: T1, endogenous Nodal protein (Homo sapiens, UniProt Q96S42); test: Western blot detection of endogenous Nodal in human melanoma cell lysates with 3D1; type: binding; details: 3D1 at 2 μg/mL; panel of human melanoma cell lines and HEK-293
T1 construct: recognize the endogenous forms of Nodal protein in human melanoma cells; endogenous in cells; host or cells: human melanoma lines PES, A-375, SK-MEL, WM 266, LCM (blot)
T1 sequence (Q96S42 238-347): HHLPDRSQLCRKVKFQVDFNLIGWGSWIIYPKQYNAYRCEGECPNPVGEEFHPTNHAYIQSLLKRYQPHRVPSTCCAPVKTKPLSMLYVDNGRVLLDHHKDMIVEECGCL
Description: Western blot analyses for the detection of endogenous Nodal protein were performed using the following human skin malignant melanoma cell lines: PES, A-375, SK-MEL, WM 266 and LCM. HEK-293 (human embryonic kidney) cells and 100 ng of rhNodal protein were used as positive controls. Cells were lysed performing three freeze/thaw cycles in 50 mM Tris-HCl pH 7.5, 500 mM NaCl, 1% NP-40, 10 mM EDTA, 1 mM MgCl2, 1 mM CaCl2, 10% Glycerol, with an added cocktail of protease inhibitors and PMSF (phenyl-methanesulfonylfluoride). Cell lysates were cleared by centrifugation at 12,000 rpm for 20 min at 4° C. and the supernatants were quantified by Bradford assay. 50 μg of cell lysate from each sample were applied to a 15% SDS-PAGE gel under reducing conditions and electrophoresed for 3 h at 80 V. Separated proteins were transferred onto a polyvinylidene difluoride (PVDF) membrane (Millipore), previously soaked in methanol 100% for 5 min. […] The target protein was detected using the enhanced chemi-luminescent substrate method with the SuperSignal West Pico kit provided by Pierce Chemical Co. following the manufacturer's instructions. Signals were acquired with the ChemiDoc XRS video densitometer using the Quantity One software.

[2] = tested on: C8161 cells; test: C8161 orthotopic (subcutaneous) xenograft in Nude mice, intratumoral treatment; type: in vivo
Description: Experiments were carried out to determine the in vivo effects of 3D1 mAb on primary melanoma. To this end, 500,000 C8161 cells were injected subcutaneously in Nude mice. Palpable tumors were then injected directly with either 700 μg of total 3D1 mAb or IgG control antibody (alternate day intratumoral injection of 100 μg over 14 days). Mice were then sacrificed and subcutaneous tumors harvested and processed as previously described. To evaluate the effect of 3D1 mAb in the presence of the BRAF(V600E) mutation, a third orthotopic xenograft model was established in Nude mice via subcutaneous injection of approximately 150,000 A375SM human metastatic melanoma cells. Mice were treated IP with 3D1 mAb or IgG control, as described above, or 3 mg/kg of dabrafenib.
Four micron thick, formalin fixed, paraffin embedded tissue sections were prepared and immunohistochemistry was carried out on a Dako Plus autostainer (DAKO, Inc, Carpenteria, Calif.). […] Similar to the lung tumor burden evaluation described above, mean percentage of positive staining±SEM was determined by 2 different observers, each calculating the ratio of positive cells/total number of cells×100 for 4 separate high power fields (63× objective) from at least 2 different mice per group.

B1: 3D1: mouse monoclonal anti-Nodal antibody raised against hNodal(44-67); light chain SEQ ID NO:1, heavy chains SEQ ID NO:2 and 3 (protein)
light: DIKMTQSPASLSASVGETVTITCRASGNIHNYLAWYQQKQGKSPQLLVYNAKTLADGVPSRFSGSGSGTQYSLKINSLQPEDFGSYYCQHFWSTPHVRCWDQAGTETEAW
heavy 1: VKLVESGGGLVKPGGSLKLSCAASGFTFSSYAMSWVRQTPEKRLEWVASISSGGCTYYPDSVKGRFTISRDNARNILYLQMSSLRSEDTAMYYCARGSMITADGNSLLLCYGLLGSRNLXHR
heavy 2: VKLVESGGGLVQPGGSMKLSCVASGFTFRNYWMSWVRQSPEKGLEWVAEIRLKSDNYAARYAESVKGKFTISRDDSKSRLYLQMNSLRAEDTGIYYCTGIRRFAYWGQGTL
modifications: not fully specified; (120)..(120) Xaa can be any naturally occurring amino acid
In the case of B1, the “staining of endogenous Nodal forms in Western blot” value [1] is reported as “able to stain the immature form pro-Nodal”, the “mean percentage (±SEM) of cells with strong positive nuclear P-Smad2 staining” value ([2]; IHC of tumor sections, N=4) is reported as 51.3%±3.3% and the tumor volumes ([2]; direct intratumoral injection, days 8 to 14, vs IgG control, listed as 3D1 mAb) is reported as “significantly smaller; also recorded: Reduced tumor volumes”.
